Results as given in article PMC8026907.
Numbering of substitutions follows the chain as printed.

B1: SerC promoter 32-bp, fluorescein (dsDNA)
DNA 1: GCGCGTAGTGTGAACAAGCTCACATGCAAGCC
DNA 2: GGCTTGCATGTGAGCTTGTTCACACTACGCGC
B2: cAMP receptor protein from Mycobacterium tuberculosis, P9WMH3 (natural protein)
chain: MDEILARAGIFQGVEPSAIAALTKQLQPVDFPRGHTVFAEGEPGDRLYIIISGKVKIGRRAPDGRENLLTIMGPSDMFGELSIFDPGPRTSSATTITEVRAVSMDRDALRSWIADRPEISEQLLRVLARRLRRTNNNLADLIFTDVPGRVAKQLLQLAQRFGTQEGGALRVTHDLTQEEIAQLVGASRETVNKALADFAHRGWIRLEGKSVLISDSERLARRAR

Tests used:
CRP-MTB E178K [1] = molecular target: T1, CRP-MTB E178K (Mycobacterium tuberculosis, UniProt P9WMH3 1-224, E178K); assay: fluorescence anisotropy; no cAMP (apo); details: protein: recombinant; tags: His-tag (pET-3a); chain copies: 2; blunt
T1 sequence: B2 chain with E178K

CRP-MTB L47P [2] = molecular target: T2, CRP-MTB L47P (Mycobacterium tuberculosis, UniProt P9WMH3 1-224, L47P); assay: fluorescence anisotropy; no cAMP (apo); details: protein: recombinant; tags: His-tag (pET-3a); chain copies: 2; blunt
T2 sequence: B2 chain with L47P

CRP-MTB E178K [3] = molecular target: T1, CRP-MTB E178K; assay: fluorescence anisotropy; 0.1 mM cAMP; details: protein: recombinant; tags: His-tag (pET-3a); chain copies: 2; blunt
CRP-MTB L47P [4] = molecular target: T2, CRP-MTB L47P; assay: fluorescence anisotropy; 0.1 mM cAMP; details: protein: recombinant; tags: His-tag (pET-3a); chain copies: 2; blunt
CRP-MTB E178K [5] = molecular target: T1, CRP-MTB E178K; assay: fluorescence anisotropy; 1 mM cAMP; details: protein: recombinant; tags: His-tag (pET-3a); chain copies: 2; blunt
[6] = molecular target: T3, cAMP receptor protein from Mycobacterium tuberculosis (Mycobacterium tuberculosis), P9WMH3; assay: SEC; details: remark: other sources report otherwise
T3 chain: B2 chain

[7] = molecular target: T3, cAMP receptor protein from …; assay: AUC; details: remark: other sources report otherwise

Binder	Ka (CRP-MTB E178K [1])	Ka (CRP-MTB L47P [2])	Ka (CRP-MTB E178K [3])	Ka (CRP-MTB L47P [4])	Ka (CRP-MTB E178K [5])	stoichiometry N [6]	Kd [7] [nM]	stoichiometry N [7]
B1	15 ± 5.3 1e8 M-1	2.7 ± 0.9 1e8 M-1	10 ± 5 1e8 M-1	7.3 ± 3 1e8 M-1	21 ± 12.9 1e8 M-1	–	–	–
B2	–	–	–	–	–	2	< 10	2
